Values joined by “and” are separate entries in the source; they are usually repeats but may differ in a detail not shown here. Equal entries are not always repeated. Where two headings read alike, the source gives them in different places. Blank lines part the entries; values can stand above or below the molecule they belong to. Ends that are not written are not given here.
How the values were obtained:
[1] = system: rabbit anti-PIF polyclonal antibody; assay: PIF colorimetric ELISA using rabbit polyclonal antibody, epitope mapping with PIF peptides of various length; assay type: binding; conditions: for % recovery by Rabbit Polyclonal Antibody: representative value of three repeats
Protocol: (§1) To study PIF peptide and its derivatives of different length for binding to rabbit anti-PIF monoclonal antibody and rabbit anti-PIF polyclonal antibody, PIF peptides of various lengths as listed in Table 2 was synthesized, reconstituted in PBS and two different concentrations were tested by respective colorimetric ELISA following standard protocol. The standards were run in duplicate and the samples were run in triplicate and repeated three times.

[2] = system: rabbit anti-PIF monoclonal antibody; assay: PIF colorimetric ELISA using rabbit anti-PIF monoclonal antibody, epitope mapping with PIF peptides of various length; assay type: binding; conditions: for % Recovery by Rabbit Monoclonal Antibody: representative value of three repeats
Protocol: as §1

[3] = biological target: T1, rabbit monoclonal anti-PIF antibody Clone #30; assay: ELISA; Clone #30 via goat anti-rabbit; biotin-PIF tracer without unlabeled PIF
T1 chain 1: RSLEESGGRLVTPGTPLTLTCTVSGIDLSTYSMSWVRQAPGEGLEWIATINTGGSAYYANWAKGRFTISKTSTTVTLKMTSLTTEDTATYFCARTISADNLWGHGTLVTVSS
T1 chain 2: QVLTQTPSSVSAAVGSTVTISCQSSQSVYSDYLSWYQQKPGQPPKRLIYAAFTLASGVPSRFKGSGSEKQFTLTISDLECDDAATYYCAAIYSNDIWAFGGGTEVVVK

PIF = assay: Surface plasmon resonance (SPR), captured Clone #30 with PIF as analyte; assay type: binding, human; conditions: PIF 2-fold concentration series up to 10 μM, duplicate
Source text: (§2) The PIF-binding specificity of the rabbit monoclonal antibody Clone #30 described in Example 1 was quantitatively characterized by surface plasmon resonance (SPR). SPR is an optical technique for detecting the interaction of two different molecules in which one is mobile and one is fixed on a thin gold film. In SPR analysis, affinity-purified ligand polypeptides are immobilized on a sensor chip inserted into the flow chamber of an instrument, such as Biacore 3000 instrument (Biacore, Uppsala, Sweden). Addition of a second polypeptide, the flow-through analyte, to the chamber, results in binding to the immobilized polypeptide ligand, producing a small change in refractive index at the gold surface, which can be quantified with precision. Binding affinities can be obtained from the ratio of rate constants, yielding a straightforward characterization of protein-protein interaction.
(§3) In the work described here, purified rabbit monoclonal antibody Clone #30 was used as the ligand polypeptide and PIF in solution was used as the analyte to evaluate their binding affinity. To immobilize rabbit monoclonal antibody Clone #30 onto a chip, a sheep polyclonal anti-rabbit antibody was used. The sheep anti-rabbit antibody was amine coupled to a CM5 sensor chip using standard NHS/EDC activation. […]

scrambled PIF (SCR) = assay: Surface plasmon resonance (SPR), captured Clone #30 with scrambled PIF as analyte; assay type: binding; conditions: SCR 2-fold concentration series up to 10 μM, duplicate
Source text: as §2, §3

[4] = biological target: T2, preimplantation factor (PIF), full-length 15-amino acid peptide (human); assay: SPR: Clone #30 captured (about 2000 RU) on sheep anti-rabbit antibody amine-coupled to a CM5 chip; PIF as analyte in a 2-fold series up to 10 µM; global 1:1 fit
[5] = biological target: T2, preimplantation factor (PIF), …; assay: as above; remark: listed apart in the source
[6] = biological target: T2, preimplantation factor (PIF), …; assay: SPR, Clone #30 captured on sheep anti-rabbit CM5 chip, PIF as analyte, global 1:1 fit
[7] = biological target: T1, rabbit monoclonal anti-PIF antibody …; assay: competitive microarray immunoassay; Clone #30 on goat anti-rabbit spots; competitor A647-sPIF tracer
[8] = biological target: T1, rabbit monoclonal anti-PIF antibody …; assay: competitive ELISA; Clone #30 via goat anti-rabbit; competitor biotin-PIF tracer
[9] = biological target: T1, rabbit monoclonal anti-PIF antibody …; assay: as above
[10] = Table 3, spike concentration not given

Molecule: MVRIKPGSANKPSDD [Clone P1-15]
recovery by PIF colorimetric ELISA using rabbit polyclonal antibody [1, 10]: 100% | % recovery by Rabbit Polyclonal Antibody ([1]; spike concentration 500 ng/ml): 115.0% | % recovery by Rabbit Polyclonal Antibody ([1]; spike concentration 1000 ng/ml): 101.4% | recovery by PIF colorimetric ELISA using rabbit anti-PIF monoclonal antibody [2, 10]: 100% | % Recovery by Rabbit Monoclonal Antibody ([2]; spike concentration 500 ng/ml): 100.0% | % Recovery by Rabbit Monoclonal Antibody ([2]; spike concentration 1000 ng/ml): 100.0%

Molecule: P8-15: PIF peptide, amino acid locations 8-15 (S A N K P S D D) (SANKPSDD) [Clone P8-15]
% recovery by Rabbit Polyclonal Antibody ([1]; spike concentration 100 ng/ml): 0% | % recovery by Rabbit Polyclonal Antibody ([1]; spike concentration 200 ng/ml): 0% | % Recovery by Rabbit Monoclonal Antibody ([2]; spike concentration 100 ng/ml): 0% | % Recovery by Rabbit Monoclonal Antibody ([2]; spike concentration 200 ng/ml): 0%

% Bound, tracer alone (0 pg/mL PIF) [3]: 96% | AvgNetRLU, tracer alone (0 pg/mL PIF) [3]: 2.28e+07 RLU | MeanValue (RLU), tracer alone (0 pg/mL PIF) [3]: 2.8e+07 RLU | Values (RLU), tracer alone (0 pg/mL PIF) [3]: 2.86e+07 RLU and 2.74e+07 RLU
Molecule: MVRIKPGSANKPSDD (not fully specified) [biotin labeled PIF]

Kd (PIF; SPR, 1:1 interaction model): ~15 nM | binding of scrambled PIF (SCR) to Clone #30 by SPR (scrambled PIF (SCR)): no binding was observed
B1: Clone #30: Rabbit monoclonal antibody against human PIF peptide; heavy chain SEQ ID NO: 2, light chain SEQ ID NO: 7 (antibody, listed as Homo sapiens)
heavy: METGLRWLLLVAVLKGVQCRSLEESGGRLVTPGTPLTLTCTVSGIDLSTYSMSWVRQAPGEGLEWIATINTGGSAYYANWAKGRFTISKTSTTVTLKMTSLTTEDTATYFCARTISADNLWGHGTLVTVSSGQPKAPSVFPLAPCCGDTPSSTVTLGCLVKGYLPEPVTVTWNSGTLTNGVRTFPSVRQSSGLYSLSSVVSVTSSSQPVTCNVAHPATNTKVDKTVAPSTCSKPTCPPPELLGGPSVFIFPPKPKDTLMISRTPEVTCVVVDVSQ
light: MDTRAPTQLLGLLLLWLPGATFAQVLTQTPSSVSAAVGSTVTISCQSSQSVYSDYLSWYQQKPGQPPKRLIYAAFTLASGVPSRFKGSGSEKQFTLTISDLECDDAATYYCAAIYSNDIWAFGGGTEVVVKGDPVAPTVLIFPPSADQVATGTVTIVCVANKYFPDVTVTWEVDGTTQTTGIENSKTPQNSADCTYNLSSTLTLTSTQYNSHKEYTCKVTQGTTSVVQSFNRGDC
binding of PIF to Clone #30 by SPR (PIF): significant and concentration dependent binding response

Kd [4]: 10.7 nM | Kd [5]: 17.5 nM | Kd [6]: 15 nM
B2: rabbit monoclonal anti-PIF antibody Clone #30 (antibody, V domains shown)
VH: T1 chain 1
VL: T1 chain 2

% B/B0 at 15.625 pg/mL [7]: 122% | % B/B0 at 31.25 pg/mL [7]: 69% | % B/B0 at 62.5 pg/mL [7]: 38% | % B/B0 at 125 pg/mL [7]: 43% | % B/B0 at 250 pg/mL [7]: 19% | Average Mean RFU of bound tracer at 15.625 pg/mL [7]: 10900 RFU | Average Mean RFU of bound tracer at 31.25 pg/mL [7]: 6170 RFU | Average Mean RFU of bound tracer at 62.5 pg/mL [7]: 3350 RFU | Average Mean RFU of bound tracer at 125 pg/mL [7]: 3850 RFU | Average Mean RFU of bound tracer at 250 pg/mL [7]: 1690 RFU | Average Mean RFU of bound tracer at 500 pg/mL [7]: 285 RFU | % Bound at 1 pg/mL [8]: 93.7% | % Bound at 5 pg/mL [8]: 92.8% | % Bound at 10 pg/mL [8]: 91.7% | % Bound at 25 pg/mL [8]: 90% | % Bound at 50 pg/mL [8]: 87% | % Bound at 100 pg/mL [8]: 89.9% | % Bound at 250 pg/mL [8]: 77.3% | % Bound at 500 pg/mL [8]: 61.1% | % Bound at 1000 pg/mL [8]: 49.8% | % Bound at 2000 pg/mL [8]: 27% | AvgNetRLU at 1 pg/mL [8]: 2.23e+07 RLU | AvgNetRLU at 5 pg/mL [8]: 2.21e+07 RLU | AvgNetRLU at 10 pg/mL [8]: 2.18e+07 RLU | AvgNetRLU at 25 pg/mL [8]: 2.14e+07 RLU | AvgNetRLU at 50 pg/mL [8]: 2.07e+07 RLU | AvgNetRLU at 100 pg/mL [8]: 2.14e+07 RLU | AvgNetRLU at 250 pg/mL [8]: 1.84e+07 RLU | AvgNetRLU at 500 pg/mL [8]: 1.45e+07 RLU | AvgNetRLU at 1000 pg/mL [8]: 1.18e+07 RLU | AvgNetRLU at 2000 pg/mL [8]: 6.41e+06 RLU | MeanValue (RLU) at 1 pg/mL [8]: 2.75e+07 RLU | MeanValue (RLU) at 5 pg/mL [8]: 2.73e+07 RLU | MeanValue (RLU) at 10 pg/mL [8]: 2.7e+07 RLU | MeanValue (RLU) at 25 pg/mL [8]: 2.66e+07 RLU | MeanValue (RLU) at 50 pg/mL [8]: 2.59e+07 RLU | MeanValue (RLU) at 100 pg/mL [8]: 2.66e+07 RLU | MeanValue (RLU) at 250 pg/mL [8]: 2.36e+07 RLU | MeanValue (RLU) at 500 pg/mL [8]: 1.97e+07 RLU | MeanValue (RLU) at 1000 pg/mL [8]: 1.7e+07 RLU | MeanValue (RLU) at 2000 pg/mL [8]: 1.16e+07 RLU | Values (RLU) at 1 pg/mL [8]: 2.77e+07 RLU and 2.73e+07 RLU | Values (RLU) at 5 pg/mL [8]: 2.75e+07 RLU and 2.7e+07 RLU | Values (RLU) at 10 pg/mL [8]: 2.72e+07 RLU and 2.68e+07 RLU | Values (RLU) at 25 pg/mL [8]: 2.66e+07 RLU | Values (RLU) at 50 pg/mL [8]: 2.64e+07 RLU and 2.53e+07 RLU | Values (RLU) at 100 pg/mL [8]: 2.69e+07 RLU and 2.62e+07 RLU | Values (RLU) at 250 pg/mL [8]: 2.37e+07 RLU and 2.34e+07 RLU | Values (RLU) at 500 pg/mL [8]: 2.03e+07 RLU and 1.91e+07 RLU | Values (RLU) at 1000 pg/mL [8]: 1.75e+07 RLU and 1.66e+07 RLU | Values (RLU) at 2000 pg/mL [8]: 1.19e+07 RLU and 1.14e+07 RLU | % Bound at 1 pg/mL [9]: 96.6% | % Bound at 10 pg/mL [9]: 93.6% | % Bound at 25 pg/mL [9]: 91.1% | % Bound at 250 pg/mL [9]: 81.4% | % Bound at 500 pg/mL [9]: 69.9% | AvgNetRLU at 1 pg/mL [9]: 2.3e+07 RLU | AvgNetRLU at 10 pg/mL [9]: 2.23e+07 RLU | AvgNetRLU at 25 pg/mL [9]: 2.16e+07 RLU | AvgNetRLU at 250 pg/mL [9]: 1.93e+07 RLU | AvgNetRLU at 500 pg/mL [9]: 1.66e+07 RLU | MeanValues (RLU) at 1 pg/mL [9]: 2.82e+07 RLU | MeanValues (RLU) at 10 pg/mL [9]: 2.74e+07 RLU | MeanValues (RLU) at 25 pg/mL [9]: 2.68e+07 RLU | MeanValues (RLU) at 250 pg/mL [9]: 2.45e+07 RLU | MeanValues (RLU) at 500 pg/mL [9]: 2.18e+07 RLU | Values (RLU) at 1 pg/mL [9]: 2.86e+07 RLU and 2.77e+07 RLU | Values (RLU) at 10 pg/mL [9]: 2.79e+07 RLU and 2.7e+07 RLU | Values (RLU) at 25 pg/mL [9]: 2.72e+07 RLU and 2.65e+07 RLU | Values (RLU) at 250 pg/mL [9]: 2.48e+07 RLU and 2.43e+07 RLU | Values (RLU) at 500 pg/mL [9]: 2.23e+07 RLU and 2.13e+07 RLU
Molecule: MVRIKPGSANKPSDD (modifications not checked) [preimplantation factor (PIF), full-length 15-amino acid peptide]
